Results on one molecule are retold here after US9410182B2, “Phosphatase coupled glycosyltransferase assay” (Bio-Techne Corporation, priority 2010, dated 2016).

The nature of this data set: Transferase activity of Fut7 on 3′-sialyl-N-acetyllactosamine assayed with CD39L3. The class given is biochemical. The following applies: 0.1 μg CD39L3, 40 μM GDP-fucose, 40 μM 3′-sialyl-N-acetyllactosamine, 37° C., 30 minutes. An excerpt: The GDP-Fucose, UDP-Glucose, CMP-NeuAc, CMP, UDP and GDP used in the following experiments were obtained from Sigma-Aldrich (St Louis, Mo.). The recombinant human Fut7, ST6Gal1, CD73, CD39L3, non-specific alkaline phosphatase TNAP, recombinant Clostridium Difficile toxin B (TcdB) containing the glycosyltransferase domain and Malachite Green Phosphate Detection Kit were obtained from R&D Systems (Minneapolis, Minn.). The 3′-Sialyl-N-acetyllactosamine was obtained from V-LABS, Inc (Convington, La.). Unless otherwise specified, each glycosyltransferase reaction was performed in 50 μL of a buffer of 25 mM Tris, 150 mM NaCl, 5 mM MgCl2 and 5 mM MnCl2, at pH 7.5 in a 96-well plate at room temperature for 20 minutes. To determine kinetic parameters of each glycosyltransferase, multiple reactions with varied amounts of either glycosyltransferase or substrates were preceded simultaneously in the presence of fixed amounts of all other components, including a phosphatase. A well containing all components except glycosyltransferase served as a blank control for each example. […] The plate was then read at 620 nm with a multi-well plate reader.
The only known function of fucosyltransferase 7 (Fut7) is the biosynthesis of sialy Lewis X epitope in leukocytes and high endothelial venule cells. […] The reaction was then stopped and detected by malachite reagents. […]

B1: Fut7: recombinant human fucosyltransferase 7 from R&D Systems (protein, UniProt Q11130 1-342, looked up)
Alpha-(1,3)-fucosyltransferase …: MNNAGHGPTRRLRGLGVLAGVALLAALWLLWLLGSAPRGTPAPQPTITILVWHWPFTDQPPELPSDTCTRYGIARCHLSANRSLLASADAVVFHHRELQTRRSHLPLAQRPRGQPWVWASMESPSHTHGLSHLRGIFNWVLSYRRDSDIFVPYGRLEPHWGPSPPLPAKSRVAAWVVSNFQERQLRARLYRQLAPHLRVDVFGRANGRPLCASCLVPTVAQYRFYLSFENSQHRDYITEKFWRNALVAGTVPVVLGPPRATYEAFVPADAFVHVDDFGSARELAAFLTGMNESRYQRFFAWRDRLRVRLFTDWRERFCAICDRYPHLPRSQVYEDLEGWFQA
Turning to B1, the “specific activity of the enzyme” value was 12.6 pmol/min/µg.
